For the experiment, the target named is N-terminally SNAP-tagged GLP-1R (glucagon-like peptide-1 receptor) (UniProt P43220). Description: FRET or BRET. (Bioluminescence resonance energy transfer reports proximity on the nanometre scale.)
Sequence of UniProt P43220 (P43220 24-463): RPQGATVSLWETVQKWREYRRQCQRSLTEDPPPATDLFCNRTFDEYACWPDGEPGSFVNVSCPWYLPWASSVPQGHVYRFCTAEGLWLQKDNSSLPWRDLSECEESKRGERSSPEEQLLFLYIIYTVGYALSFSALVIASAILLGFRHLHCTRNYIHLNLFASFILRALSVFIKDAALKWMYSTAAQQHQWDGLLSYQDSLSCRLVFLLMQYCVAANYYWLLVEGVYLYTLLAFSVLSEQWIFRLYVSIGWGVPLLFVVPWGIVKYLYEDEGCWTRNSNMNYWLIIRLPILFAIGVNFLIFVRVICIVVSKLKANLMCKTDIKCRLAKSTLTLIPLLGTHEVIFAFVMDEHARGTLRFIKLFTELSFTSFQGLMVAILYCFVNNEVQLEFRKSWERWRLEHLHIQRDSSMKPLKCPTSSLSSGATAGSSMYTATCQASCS

Take “exendin-4 (from UniProt P26349 48-87) (peptide)”: the fold affinity relative to GLP-1 amounted to 5 fold.

The values are drawn from paper doi:10.1101/2020.02.24.961524.
